{"source": "paper PMC13233820", "about": "“Recruitment of Mre11 to recombination sites during meiosis” (Nature Communications, 2026)", "key": {"Mer2": {"system": "Mer2", "assay": "Co-immunoprecipitation of Mer2 and Mre11 from meiotic extracts", "assay_type": "binding, Saccharomyces cerevisiae", "settings": "Supplementary Fig. 6i", "description": "Meiotic cultures were collected at 4 h after transferring to SPM, washed once in ice-cold 1 × PBS containing 1 mM PMSF, following which, they were transferred to 1.5 ml screw-cap tubes and were either snap frozen in liquid nitrogen or processed directly. […] 900 µL of 0.5 mm zirconium beads were added to the cell pellet, and cells were lyzed in a Precellys bead beater at 7200 rpm for 12 × 15 seconds while chilling the tubes for 2 min on ice between each cycle. Cell extract was collected by poking a hole at the bottom of the tubes while placing the tubes on top of another 1.5 ml tubes and centrifuging at 800 × g for 1 min at 4 °C. Beads were washed with 500 µl of IP buffer and collected in the same tube. Cell lysate was spun again at 800 g for 5 min at 4 °C and supernatant was transferred to 15 mL tubes. Sonication was performed three times in ice in Bioruptor Plus at intensity (M) in a 30 s ON / 30 s OFF cycle for 15 min each time. The lysate was centrifuged at 15.000 g at 4 °C for 10 min and the supernatant (~ 800 µl) was transferred to new 1.5 ml tubes. 80 µL (10%) was collected as Input fraction and snap frozen. 1 µL of mouse monoclonal anti-myc primary antibody was added to each tube, and tubes were rotated overnight at 5 rpm at 4 °C. The following day, Dynabeads Protein G (30 µl per tube) were added to Protein LoBind tubes and washed two times with 1 mL IP buffer containing 1 mM PMSF using DynaMag2. The lysates with the antibody were transferred to the tubes containing Dynabeads and were rotated for 3-4 hours at 5 rpm at 4 °C, following which, the Dynabeads were collected and washed four times with 1 ml IP buffer containing 1 mM PMSF. Finally, 60 µL IP buffer and 20 µL 4 × Lammelli buffer was added to the tubes and incubated for 5 mins at 95 °C while shaking at 1000 rpm. TCA extraction was performed on the input fractions by adding 8 µL 100 % TCA (final 10 % TCA) and incubating on ice for 30 mins. Precipitated proteins were solubilized in 40 µL 1 × Laemmli sample buffer incubated for 5 mins at 95 °C. Immunoblotting was performed using the protocol described below."}, "pUC19 plasmid substrate": {"system": "pUC19 plasmid substrate", "assay": "Gel shift assay, plasmid DNA binding", "settings": "1 nM pUC19, 25 mM HEPES-HCl pH 7.5, 100 mM NaCl, 5 mM EDTA, 30 °C 30 min", "description": "Proteins were diluted to their appropriate working concentrations in their respective storage buffers. […] Reactions were assembled at 30 °C for 30 mins and resolved in a 1% agarose (SeaKem LE Agarose, Lonza) at 60 V for 120 mins at 4 °C. Gels were stained with SYBR Gold Nucleic Acid Gel Stain (S11497, Invitrogen) for 40 mins and visualized with Amersham Typhoon biomolecular imager (Cytiva)."}, "[1]": {"system": "supercoiled pUC19 plasmid DNA", "assay": "In vitro condensation assay of Mre11 (fluorescence microscopy)", "assay_type": "biochemical", "settings": "eGFP-tagged truncations with plasmid DNA", "description": "Fig. 1 Mre11 and the MRX complex assemble DNA-dependent condensates in vitro. a, c Effect of the presence of plasmid DNA on condensation of (a) Alexa488-labeled Mre11 (n = 11 and 9 fields of view for reactions without and with DNA, respectively) and (c) eGFP-tagged MRX (n = 11 (- DNA) and 9 ( + DNA)). Experiments were performed without PEG. b, d Effect of DNase I, in the absence of PEG, on (b) Mre11 (n = 9 (no treatment) and 11 (DNase I)) and (d) MRX (n = 9 (no treatment) and 11 (DNase I)) condensates. Condensates were pre-assembled for 20 min with 5.7 nM pUC19 prior to challenge. Quantification represents total foci intensity (green) in a field of view and total number of foci per 1000 µm^2 (magenta). Foci intensity is normalized to the mean intensity of samples with DNA for (a, c) and untreated samples for (b, d). […] Quantification represents total foci intensity (green) in a field of view (normalized to the mean of + PEG images) and total number of foci per 1000 µm^2 (magenta). […]\nFig. 2 The C-terminal IDR of Mre11 is required for condensation. a AlphaFold2 predicted model of Mre11 (AF-P32829-F1-v4). […] Quantification represents total fluorescence intensity (green) in a field of view and total number of foci per 1000 µm^2 (magenta). […]"}, "spores of yeast strains": {"system": "spores of yeast strains", "assay": "Spore viability assay", "assay_type": "cell-based, Saccharomyces cerevisiae", "settings": "Fig. 7c", "description": "For the spore viability assay, a small patch of the diploid strain was incubated in sporulation media (2% potassium acetate) at 30 °C, 250 rpm for two days. After two days, 1 mL of sporulating culture was centrifuged, and all but 200 µL of supernatant was removed. To digest yeast cells, 2 µL of concentrated sporulation culture was mixed with 100 µL 1 M sorbitol and 1 µL 10 mg/ml zymolyase and incubated at 30 °C for 21 mins. 20 µL of digested cells were dropped on a YPD plate, left to dry for about 10 mins, and were micromanipulated using a tetrad dissector (MSM400, Singer Instruments). At least 20 tetrads were dissected for each assay, and spore viability was assessed by calculating the number of viable spores after 2 days of incubation at 30 °C."}}}
{"molecule": "Mer2-EQEK (protein, left off: V5, internal (after residue 248), kept) MVARGRTDEISTDVSEANSEHSLMITETSSPFRSIFSHSGKVANAGALEASDKAILAWAGALELESMELRENSDKLIKVLNENSKTLCKSLNKFNQLLEQDAATNGNVKTLIKDLASQIENQLDKVSTAMLSKGDEKKTKSDSSYRQVLVEEISRYNSKITRHVTNKQHETEKSMRCTQEMLFNVGSQLEDVHKVLLSLSKDMHSLQTRQTALEMAFREKADHAYDRPDVSLNGTTLLHDMDEAHDKQRKKSVPPPRMMVTRSMKRRRSSSPTLSTSQNHNSEDNDDASHRLKRAARTIIPWEELRPDTLESEL", "values": [{"measurement": "Normalized to WT Mer2 IP", "setting": "Mer2; Experiment 1", "value": 56.73}, {"measurement": "Normalized to WT Mer2 IP", "setting": "Mer2; Experiment 2", "value": 70.72}]}
{"molecule": "Mre11-ΔC15: Mre11 lacking the C-terminal 15-residue α-helix (protein, left off: Gal4 activation domain (from the vector pGAD-C1), end not stated, kept, Mre11 lacking the C-terminal 15-residue α-helix) MDYPDPDTIRILITTDNHVGYNENDPITGDDSWKTFHEVMMLAKNNNVDMVVQSGDLFHVNKPSKKSLYQVLKTLRLCCMGDKPCELELLSDPSQVFHYDEFTNVNYEDPNFNISIPVFGISGNHDDASGDSLLCPMDILHATGLINHFGKVIESDKIKVVPLLFQKGSTKLALYGLAAVRDERLFRTFKDGGVTFEVPTMREGEWFNLMCVHQNHTGHTNTAFLPEQFLPDFLDMVIWGHEHECIPNLVHNPIKNFDVLQPGSSVATSLCEAEAQPKYVFILDIKYGEAPKMTPIPLETIRTFKMKSISLQDVPHLRPHDKDATSKYLIEQVEEMIRDANEETKQKLADDGEGDMVAELPKPLIRLRVDYSAPSNTQSPIDYQVENPRRFSNRFVGRVANGNNVVQFYKKRSPVTRSKKSGINGTSISDRDVEKLFSESGGELEVQTLVNDLLNKMQLSLLPEVGLNEAVKKFVDKDEKTALKEFISHEISNEVGILSTNEEFLRTDDAEEMKALIKQVKRANSVRPTPPKENDETNFAFNGNGLDSFRSSNREVRTGSPDITQSHVDNESRITHISQAESSKPTSKPKRVRTATKKKIPAFSDSTVISDAENELGDNNDAQDDVDIDENDIIMVSTDEEDASYGLLNGRKTKTKTRPAASTKTASRRGKGRASRT", "values": [{"measurement": "Normalized to WT Mer2 IP", "setting": "Mer2; Experiment 1", "value": 68.56}]}
{"molecule": "Mre11-IDR: Mre11 disordered region alone (524-677) (protein, UniProt P32829 524-677, looked up, fragment) NSVRPTPPKENDETNFAFNGNGLDSFRSSNREVRTGSPDITQSHVDNESRITHISQAESSKPTSKPKRVRTATKKKIPAFSDSTVISDAENELGDNNDAQDDVDIDENDIIMVSTDEEDASYGLLNGRKTKTKTRPAASTKTASRRGKGRASRT", "values": [{"measurement": "DNA-binding activity (in words)", "setting": "pUC19 plasmid substrate", "value": "reduced DNA binding as compared to the wild type or Mre11^ΔIDR"}, {"measurement": "Condensation of Mre11 truncations (in words)", "setting": "[1]", "value": "failed to form condensates"}]}
{"molecule": "Mre11-myc (WT) (protein, UniProt P32829 1-692, looked up, myc tag) Double-strand break repair …: MDYPDPDTIRILITTDNHVGYNENDPITGDDSWKTFHEVMMLAKNNNVDMVVQSGDLFHVNKPSKKSLYQVLKTLRLCCMGDKPCELELLSDPSQVFHYDEFTNVNYEDPNFNISIPVFGISGNHDDASGDSLLCPMDILHATGLINHFGKVIESDKIKVVPLLFQKGSTKLALYGLAAVRDERLFRTFKDGGVTFEVPTMREGEWFNLMCVHQNHTGHTNTAFLPEQFLPDFLDMVIWGHEHECIPNLVHNPIKNFDVLQPGSSVATSLCEAEAQPKYVFILDIKYGEAPKMTPIPLETIRTFKMKSISLQDVPHLRPHDKDATSKYLIEQVEEMIRDANEETKQKLADDGEGDMVAELPKPLIRLRVDYSAPSNTQSPIDYQVENPRRFSNRFVGRVANGNNVVQFYKKRSPVTRSKKSGINGTSISDRDVEKLFSESGGELEVQTLVNDLLNKMQLSLLPEVGLNEAVKKFVDKDEKTALKEFISHEISNEVGILSTNEEFLRTDDAEEMKALIKQVKRANSVRPTPPKENDETNFAFNGNGLDSFRSSNREVRTGSPDITQSHVDNESRITHISQAESSKPTSKPKRVRTATKKKIPAFSDSTVISDAENELGDNNDAQDDVDIDENDIIMVSTDEEDASYGLLNGRKTKTKTRPAASTKTASRRGKGRASRTPKTDILGSLLAKKRK", "values": [{"measurement": "Visible spore colonies", "setting": "spores of yeast strains; spores placed: 144 (WT), 80 (ΔC15), 88 (SIM), 80 (ΔC15+ SIM)", "value": 140}, {"measurement": "Spore Viability", "setting": "spores of yeast strains; visible spore colonies of spores placed", "value": 97.22}]}
